Laboratory results taken from the Human Domainome abundance scans (Beltran et al. 2025).
± gives the uncertainty stated by the source.

B1: Homeobox protein cut-like 1, residues 548 to 629; numbered along this chain, P39880 (parent)
chain: GEEMDTAEIARQVKEQLIKHNIGQRIFGHYVLGLSQGSVSEILARPKPWNKLTVRGKEPFHKMKQFLSDEQNILALRSIQGR
B2: Activity-dependent neuroprotector homeobox protein, residues 770 to 810; numbered along this chain, Q9H2P0 (parent)
chain: FLTKYFNKQPYPTRREIEKLAASLWLWKSDIASHFSNKRKK

Variants of: B1
Experiment: abundance fitness (aPCA) (normalised: wild type 0, dead -1); higher = more abundant; growth selection in yeast, the domain comes from the species named
Settings: Homo sapiens
For F66E, the abundance fitness was -0.887 ± 0.055. Variant L74W has an abundance fitness of -0.098 ± 0.032. L74C showed an abundance fitness of -0.162 ± 0.049. With L74K the abundance fitness was 0.029 ± 0.036. Work on L74V yielded an abundance fitness of 0.017 ± 0.029. Work on L74A yielded an abundance fitness of -0.039 ± 0.031. In the case of I22G, the abundance fitness is reported as -0.86 ± 0.042. For I22T, the abundance fitness was -0.687 ± 0.052. Variant I22P has an abundance fitness of -0.718 ± 0.056. For G28Y, the abundance fitness was -0.374 ± 0.1. G28W gave an abundance fitness of -0.764 ± 0.056. Work on G28E yielded an abundance fitness of -0.188 ± 0.031. For L17M, the abundance fitness was -0.405 ± 0.046. With L17V the abundance fitness was -0.665 ± 0.038. L52C showed an abundance fitness of -0.484 ± 0.065. L52K showed an abundance fitness of -1.13 ± 0.24. L52S showed an abundance fitness of -0.97 ± 0.082. In the case of Q36Y, the abundance fitness is reported as -0.045 ± 0.068. For Q36W, the abundance fitness was -0.039 ± 0.031. Variant K14S has an abundance fitness of 0.565 ± 0.4. In the case of K14T, the abundance fitness is reported as -0.396 ± 0.23. Work on K14H yielded an abundance fitness of 0.1 ± 0.17. Work on W49A yielded an abundance fitness of -0.202 ± 0.14. For I9R, the abundance fitness was -0.69 ± 0.035. In the case of I9W, the abundance fitness is reported as -0.82 ± 0.054. For I9N, the abundance fitness was -0.643 ± 0.088. For L32I, the abundance fitness was -0.562 ± 0.088. Work on L32G yielded an abundance fitness of -0.839 ± 0.042. With K47L the abundance fitness was 0.028 ± 0.028. K47V gave an abundance fitness of -0.015 ± 0.028. Variant K57W has an abundance fitness of -0.526 ± 0.04. Variant K57H has an abundance fitness of -0.426 ± 0.095. For K57S, the abundance fitness was -0.334 ± 0.035. Variant D69G has an abundance fitness of -0.267 ± 0.027. In the case of D69N, the abundance fitness is reported as -0.015 ± 0.052. With D69M the abundance fitness was -0.231 ± 0.044. With D69V the abundance fitness was -0.308 ± 0.034. For D69A, the abundance fitness was -0.174 ± 0.032. D69I gave an abundance fitness of -0.425 ± 0.07.

Variants of: B2
Experiment: as above
Settings: Homo sapiens
With K28N the abundance fitness was -0.244 ± 0.076. Work on K28M yielded an abundance fitness of 0.438 ± 0.06. In the case of K28C, the abundance fitness is reported as 0.317 ± 0.059. For K28R, the abundance fitness was -0.188 ± 0.049. Work on K28L yielded an abundance fitness of 0.55 ± 0.048. Variant F35S has an abundance fitness of -0.156 ± 0.049. With F35G the abundance fitness was -0.112 ± 0.05. Work on L20Y yielded an abundance fitness of 0.064 ± 0.12. Work on L20K yielded an abundance fitness of 0.036 ± 0.14. Variant L20Q has an abundance fitness of -0.462 ± 0.096. L20P gave an abundance fitness of -0.124 ± 0.057. E18M showed an abundance fitness of 0.075 ± 0.41. For E18H, the abundance fitness was -0.257 ± 0.12. Variant A21W has an abundance fitness of 0.008 ± 0.053. With A21G the abundance fitness was 0.202 ± 0.059. Work on A21I yielded an abundance fitness of -0.169 ± 0.099. With A21Y the abundance fitness was -0.177 ± 0.088. Variant A32C has an abundance fitness of 0.074 ± 0.14. In the case of S23Q, the abundance fitness is reported as -0.404 ± 0.28. For S23A, the abundance fitness was -0.177 ± 0.079. Work on S23E yielded an abundance fitness of -0.116 ± 0.13. With S23Y the abundance fitness was -0.364 ± 0.2. S23N gave an abundance fitness of -0.074 ± 0.16. Work on S29G yielded an abundance fitness of -0.014 ± 0.057. Variant S29H has an abundance fitness of 0.077 ± 0.076. S36D showed an abundance fitness of -0.159 ± 0.077. S36C showed an abundance fitness of -0.006 ± 0.064. In the case of P10S, the abundance fitness is reported as 0.06 ± 0.068. With K8Q the abundance fitness was -0.858 ± 0.12. In the case of K8L, the abundance fitness is reported as -1.02 ± 0.097. Work on K8H yielded an abundance fitness of -1.09 ± 0.1. For K8R, the abundance fitness was -0.22 ± 0.051. Work on P12R yielded an abundance fitness of -0.128 ± 0.061. With P12G the abundance fitness was 0.099 ± 0.051. In the case of P12M, the abundance fitness is reported as -0.114 ± 0.13. Variant P12L has an abundance fitness of -0.22 ± 0.082. With P12V the abundance fitness was -0.584 ± 0.088. P12K gave an abundance fitness of 0.062 ± 0.21. With R15G the abundance fitness was -0.088 ± 0.061. R15D showed an abundance fitness of -0.278 ± 0.15. Work on R15A yielded an abundance fitness of 0.116 ± 0.052. T3D gave an abundance fitness of -0.291 ± 0.069. In the case of T3H, the abundance fitness is reported as -0.325 ± 0.058. With T3S the abundance fitness was 0.001 ± 0.054. For T3W, the abundance fitness was -0.786 ± 0.11. D30K gave an abundance fitness of 0.071 ± 0.1. Work on D30Y yielded an abundance fitness of -0.082 ± 0.13. With D30M the abundance fitness was -0.054 ± 0.1. In the case of D30T, the abundance fitness is reported as -0.182 ± 0.089. D30A showed an abundance fitness of -0.247 ± 0.062. For N37E, the abundance fitness was -0.142 ± 0.19. N37G showed an abundance fitness of 0.022 ± 0.05. Variant N37M has an abundance fitness of 0.013 ± 0.068. With N37T the abundance fitness was -0.077 ± 0.055. In the case of N37Q, the abundance fitness is reported as -0.141 ± 0.06. Variant N37F has an abundance fitness of -0.044 ± 0.066. With N37C the abundance fitness was -0.002 ± 0.091. With N37P the abundance fitness was -0.107 ± 0.059. Work on L24K yielded an abundance fitness of -0.321 ± 0.088. L24E gave an abundance fitness of -0.82 ± 0.2. In the case of L24Q, the abundance fitness is reported as -0.783 ± 0.22. In the case of L24D, the abundance fitness is reported as -0.033 ± 0.19. With L24T the abundance fitness was -0.212 ± 0.082. In the case of K38F, the abundance fitness is reported as -0.269 ± 0.073. Work on K38P yielded an abundance fitness of -0.206 ± 0.052. K4N gave an abundance fitness of -0.419 ± 0.18. Variant F6V has an abundance fitness of -0.369 ± 0.05. In the case of F6I, the abundance fitness is reported as -0.237 ± 0.059. K41P gave an abundance fitness of -0.188 ± 0.083. Work on K41C yielded an abundance fitness of -0.261 ± 0.1. For K41Y, the abundance fitness was -0.378 ± 0.079. Variant I31C has an abundance fitness of -0.075 ± 0.065. With I31S the abundance fitness was -0.154 ± 0.05. With I31Y the abundance fitness was -0.189 ± 0.064. I31A showed an abundance fitness of 0.109 ± 0.064. With S33K the abundance fitness was 0.044 ± 0.085. Work on S33G yielded an abundance fitness of -0.023 ± 0.051. I17Q gave an abundance fitness of -0.89 ± 0.14. For I17W, the abundance fitness was 0.18 ± 0.066. Variant I17Y has an abundance fitness of -0.1 ± 0.086. N7G showed an abundance fitness of -0.365 ± 0.067. Variant N7V has an abundance fitness of -0.841 ± 0.11. E16I showed an abundance fitness of 0.009 ± 0.23. With E16A the abundance fitness was -0.14 ± 0.06. Work on E16C yielded an abundance fitness of 0.082 ± 0.063. With L2D the abundance fitness was -0.822 ± 0.12. For Y5L, the abundance fitness was -0.322 ± 0.095. Variant Y5P has an abundance fitness of -0.526 ± 0.23. For R14H, the abundance fitness was -0.514 ± 0.42. R14P showed an abundance fitness of -0.391 ± 0.14. R14F showed an abundance fitness of -0.392 ± 0.14. Variant R14S has an abundance fitness of -0.387 ± 0.072. Variant W25Y has an abundance fitness of -0.233 ± 0.22. With W25A the abundance fitness was 0.064 ± 0.065. In the case of R39L, the abundance fitness is reported as 0.031 ± 0.048. With R39E the abundance fitness was -0.249 ± 0.11. Work on R39F yielded an abundance fitness of -0.157 ± 0.067. For R39C, the abundance fitness was -0.189 ± 0.11. Work on Q9Y yielded an abundance fitness of -0.409 ± 0.19. L26Y gave an abundance fitness of -0.151 ± 0.083. With L26W the abundance fitness was 0.044 ± 0.075. L26K showed an abundance fitness of 0.341 ± 0.063. L26P showed an abundance fitness of 0.343 ± 0.058. Work on H34Y yielded an abundance fitness of -0.151 ± 0.065. H34A showed an abundance fitness of 0.006 ± 0.047. H34N gave an abundance fitness of -0.107 ± 0.096. Work on H34I yielded an abundance fitness of 0.068 ± 0.075. For W27P, the abundance fitness was -0.398 ± 0.08. W27L showed an abundance fitness of -0.04 ± 0.05. For W27H, the abundance fitness was -0.137 ± 0.081. Work on W27N yielded an abundance fitness of -0.295 ± 0.091. Variant W27A has an abundance fitness of -0.084 ± 0.052. Variant W27D has an abundance fitness of -0.22 ± 0.17. Work on W27G yielded an abundance fitness of 0.037 ± 0.064. In the case of K40N, the abundance fitness is reported as -0.425 ± 0.11. Work on K40G yielded an abundance fitness of -0.06 ± 0.058. With K40L the abundance fitness was -0.352 ± 0.068. K40S showed an abundance fitness of -0.259 ± 0.051. In the case of K40I, the abundance fitness is reported as -0.27 ± 0.13. In the case of K40W, the abundance fitness is reported as -0.137 ± 0.078. Y11H showed an abundance fitness of 0.076 ± 0.078. With T13S the abundance fitness was -0.079 ± 0.083. T13W showed an abundance fitness of 0.221 ± 0.072. With K19E the abundance fitness was -0.241 ± 0.11. K19Y showed an abundance fitness of -0.764 ± 0.12. With K19C the abundance fitness was -0.502 ± 0.11. With K19I the abundance fitness was -0.686 ± 0.18. With A22I the abundance fitness was -0.368 ± 0.13.
